Assay results: US20250346651A1 (EMORY UNIVERSITY, published 2025)
Numbering of substitutions follows the chain as printed.

Columns and labels:
[1] = molecular target: T1, recombinant MBP-E2 fusion protein (Human papillomavirus type 16, UniProt P03120 1-365, limits assumed); experiment: ELISA, plate coated with MBP-E2, purified antibody
T1 construct: The legend says only 'MBP-E2'
T1 sequence: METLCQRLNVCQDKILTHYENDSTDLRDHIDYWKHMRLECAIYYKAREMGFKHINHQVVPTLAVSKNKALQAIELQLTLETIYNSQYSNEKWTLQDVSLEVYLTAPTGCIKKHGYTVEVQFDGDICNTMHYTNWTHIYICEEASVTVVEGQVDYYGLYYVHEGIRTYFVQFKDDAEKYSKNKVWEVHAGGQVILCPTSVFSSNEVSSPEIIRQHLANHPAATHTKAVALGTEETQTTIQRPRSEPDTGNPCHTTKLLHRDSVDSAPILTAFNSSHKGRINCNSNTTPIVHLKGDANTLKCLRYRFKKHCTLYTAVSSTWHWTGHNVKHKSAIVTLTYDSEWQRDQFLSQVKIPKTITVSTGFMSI
Procedure: ELISA plates coated with recombinant MBP-E2 fusion protein were incubated with purified human monoclonal antibodies.

[2] = molecular target: T2, recombinant MBP-E6 fusion protein (Human papillomavirus type 16, UniProt P03126 1-158); experiment: ELISA, plate coated with MBP-E6, purified antibody
T2 construct: The legend says only 'MBP-E6'
T2 sequence (P03126 whole entry, the tested form may be a part): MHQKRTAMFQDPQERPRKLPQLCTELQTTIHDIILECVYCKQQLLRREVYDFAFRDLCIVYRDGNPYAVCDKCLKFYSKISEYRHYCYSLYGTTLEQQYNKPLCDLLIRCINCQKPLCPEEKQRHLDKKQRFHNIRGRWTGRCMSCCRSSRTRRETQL
Procedure: ELISA plates coated with recombinant MBP-E6 fusion protein were incubated with purified human monoclonal antibodies.

B1: 22-1B10 (antibody, V domains shown)
VH: QVQLVQSGSELRKPGASVTVSCKASGYTFSNHDMSWVRQAPGQGLEWMGWINSNTGNPTYAQGFTGRFVFSLDTSVSTAYLQISSLKSEDTAVYYCAKGGGICSGSRCYSGWFDSWGKGTLVAVSS
VL: QLVLTQSPSASASLGASVKLTCTLSSGHSGYAIAWHQQQPEKGPRYLMKLNSDGTHTKGDGIPDRFSGSSSGAERYLTISSLQSEDEADYYCQTWGTGIQVFGTGTKVTILG
[1]
  binding result: binds

B2: 21-1E2 (antibody, V domains shown)
VH: DVQLAESGGGLVQPGDSLTLSCAASGFIFNNYFMSWVRQTPGKGLEWVSGISANGERSIYADSVKGRFTISRDNSKKTVSLQMNSLSAEDTAIYYCARAGCDSTSCYARVGWFGPWGQGILVTVSS
VL: DVVMTQSPDSLAVSLGERATLNCKSRESVLYTTNNRNYLAWYQQKPGQPPKLLIYWASTRESGVPDRFSGSGSGTDFSLTISSLQAEDVAVYYCQQYLTTPPTFGQGTKVEIK
[2]
  binding result: binds

B3: 22-E2C5 (antibody, V domains shown)
VH: QVQLVQSGAEVKKPGASVKVSCRTSGYSFTRYYIHWVRQSPGRGLEWMGIIDPNNGGTTSAKTLLGKVSMTRDTSTSTAHLELTSLGPEDTAVYYCAILYSNGLEVWDYWGQGTLVTVSS
VL: SHELTQPPSVSVSPGQTAQITCSGDTLPDNYAYWYQQRSGQAPVLVVYEDNKRPSGIPERFSGSSSGTMATLTISGAQVEDDADYYCYSSDRSNNFFGGGTKLTVLS
[1]
  binding result: binds

B4: 21-1H3 (antibody, V domains shown)
VH: QVQLVQSGAEVKKPGSSVKVSCKASGGTFANSGVAWVRQAPGQGLEWMGGLIPVFGAADYAQKFRGRLSITADESSTTAFMELDSLRSDDTAVYYCAKDHFTYNKYFSWFDPWGQGTLVIVSS
VL: QTVVTQEPSLSVSPGGTVTLTCALSSGSVSTSYYPSWYQQTPGQAPRTLIYSTNLRSSGVPDRFSGSILGNKAALTITGAQADDECDYYCVLFMGSGISMFGGGTKLTVL
[2]
  binding result: binds

B5: 22-E2B2 (antibody, V domains shown)
VH: QVQLVQSGTEVKKPGASVRVSCKASGYTFTEYYLHWVRQAPGQGLEWMGRINPNSGNTNYAQKFNGRVTMTSDTSVNLAYLEVSGLTSDDTAIYYCTRDDSGAFVYWGQGTLVTVSS
VL: ETVLTQSPATLSLSPGERATLSCRSSQVISSYLAWFQQKPGQAPRLLIYDTSNRATGIPARFSGSGSGTDFTLTISSLEPEDFAVYYCQQRTNWPPREKITFGPGTKVDIK
[1]
  binding result: binds

B6: 22-E2F7 (antibody, V domains shown)
VH: B5 VH with T28S, N54K, F64L, L78V, S101N
VL: B5 VL with T92I, K111R
[1]
  binding result: binds

B7: 22-E2G5 (antibody, V domains shown)
VH: EVQVVESGGGLVQPGGSLRLSCAASGFTVNSKFMTWVRQAPGTGLECVSIIYNDGSTYYADSVKGRFTISRDNSKNTLYLQMNRLRPEDTAVYFCARRAFFGGNDDFDIWGQGTLVTVSS
VL: EIVLTQSPGTLSLSPGDRATLSCRAGQSVSSSFLAWYQQRPGQPPRLLIYGASSRATDIPDRFSGSGSGTDFTLTISRLEPEDFAVYYCHQYSSSLPTFGPGTKVEIK
[1]
  binding result: binds

B8: 22-E2D4 (antibody, V domains shown)
VH: QVQLVQSGAEVKRPGSSVKVSCKASGDNFNNYAFHWVRQAPGQGLEWMGRTIPFLGLTSYSPNIQGRVSISADKSTATAFMEMSGLRSEDTAMYYCASSIRLGDFLYRASYYYSSPLDVWGQGTTVTVSS
VL: EVVLTQSPGTLSLSPGDRATLTCRAGQTISNSYLAWYQQKPGQAPRLLISGVSSRATGIPDRFSGSGSGTDFTLTISRLEPEDFAVYYCQLYGNSPSFGQGTRLEIK
[1]
  binding result: binds
